The labels stand for the following.
B1: Hairpin Ribozyme (parent)
chain: GUCCUCUUUCACGUGCGCGUGAAAGAGAGAAGUGAACCAGAGAAACACACGUUGUGGUAUAUUACCUGGUA

In this data set the parent is B1. Briefly: self-cleavage, relative activity (ratio to wild type); higher = more cleavage; co-transcriptional.
Take GUCCUCUUUCAGGUGCGCGUGAAAGAGAGAAGUGGACCAGAGAAACACACGUUGUGGUAUAUUACCUGGUA: the self-cleavage was determined as 0.874.

GUCCUCUUUCAGGUGCGCGUUAAAGAGAGAAGUGAACCAGAGAAACACACGUUGUGGUAUAUUACCUGGUA: the self-cleavage came out at 0.663.

Regarding GUCCUCUUUCAGGUGCGUGUGAAAGAGAGAAGUGAACCAGAGAAACACACGUUGUGGUAUAUUACCUGGUA, the self-cleavage is 0.889.

GUCCUCUUUCAGGUGCGAGUGAAAGAGAGAAGUGAACCAGAGAAACACACGUUGUGGUAUAUUACCUGGUA: the self-cleavage stood at 0.926.

With GUCCUCUUUCAGGUGCGGGUGAAAGAGAGAAGUGAACCAGAGAAACACACGUUGUGGUAUAUUACCUGGUA, the self-cleavage stood at 0.727.

Regarding GUCCUCUUUCAGGUGCGCGUGAAAGAGAGAAGUGAACCAGAGAAACACACGUUGUGGUAUAUUGCCUGGUA, the self-cleavage amounted to 0.466.

Consider GUCCUCUUUCAUGUGCGCGUGAAAGAGAGAAGUGAACCAGAGCAACACACGUUGUGGUAUAUUACCUGGUA, for which the self-cleavage is 0.105.

In the case of GUCCUCUUUCAGGUGCGCGUGAAAGAGAGAAGUGAACCAGAGAAACAAACGUUGUGGUAUAUUACCUGGUA, the self-cleavage was determined as 0.128.

On to GUCCUCUUUCAAGUGCGCGUGAAAGAGAGAAGUGAACCAGAGAAACACACGUUGUGGUAUAAUACCUGGUA, for which the self-cleavage is 0.168.

For GUCCUCUUUCAGGUGCGCGUGAAUGAGAGAAGUGAACCAGAGAAACACACGUUGUGGUAUAUUACCUGGUA, the self-cleavage turned out to be 0.669.

Turning to GUCCUCUUUCAGGUGCGCGUGAAAGAGAGAAGUGAACCAGAGAAACACACGUUGUGGUAGAUUACCUGGUA, the self-cleavage stood at 0.452.

With GUCCUCUUUCAGGUGCGCGUGAAAGAGAGAAGUAAACCAGAGAAACACACGUUGUGGUAUAUUACCUGGUA, the self-cleavage is 1.03.

For the variant GUCCUCUUUCAGGUGCGCGUGAAAGAGAGAAGUUAACCAGAGAAACACACGUUGUGGUAUAUUACCUGGUA, the self-cleavage was 1.16.

Turning to GUCCUCUUUCAUGUGCGCGUGAAAGAGAGAGGUGAACCAGAGAAACACACGUUGUGGUAUAUUACCUGGUA, the self-cleavage turned out to be 0.549.

For the variant GUCCUCUUUCAGGGGCGCGUGAAAGAGAGAAGUGAACCAGAGAAACACACGUUGUGGUAUAUUACCUGGUA, the self-cleavage is 0.684.

With GUCCUCUUUCAGGAGCGCGUGAAAGAGAGAAGUGAACCAGAGAAACACACGUUGUGGUAUAUUACCUGGUA, the self-cleavage turned out to be 0.629.

For the variant GUCCUCUUUCAGGUGCGCGUGAAAGAGAGAACUGAACCAGAGAAACACACGUUGUGGUAUAUUACCUGGUA, the self-cleavage worked out at 0.0993.

For the variant GUCCUCUUUCAGGUGCGCGUGAAAGAGAGAAGUGAACCAGAGAAACACACGUUGUGGUAUAUUACCUGGUU, the self-cleavage stood at 0.655.

Consider GUCCUCUUUCAGGUGCGCGUGAAAGAGAGAAGUGAACCAGAGAAACACACGUUGUGGUAUAUUACCUGGUC, for which the self-cleavage worked out at 1.3.

In the case of GUCCUCUUUCAAGUGCGCGUGAAAGAGAGAAGUGAACCAGAGAAACACACGUUGGGGUAUAUUACCUGGUA, the self-cleavage was 0.406.

Turning to GUCCUCUUUCAGGUGCGCGUGAAAGAGAGAAGUGAACCAGAGAAACACACGUUGUGGUAUAUUACCUUGUA, the self-cleavage came to 0.193.

In the case of GUCCUCUUUCAAGGGCGCGUGAAAGAGAGAAGUGAACCAGAGAAACACACGUUGUGGUAUAUUACCUGGUA, the self-cleavage amounted to 0.566.

Take GUCCUCUUUCAAGAGCGCGUGAAAGAGAGAAGUGAACCAGAGAAACACACGUUGUGGUAUAUUACCUGGUA: the self-cleavage was 0.611.

Take GUCCUCUUUCAAGCGCGCGUGAAAGAGAGAAGUGAACCAGAGAAACACACGUUGUGGUAUAUUACCUGGUA: the self-cleavage is 0.71.

Regarding GUCCUCUUUCAAGUGCGCGUGAAAGAGAGAAGUGAACCAGAGAAACACACGUUGUGGGAUAUUACCUGGUA, the self-cleavage was determined as 0.708.

For the variant GUCCUCUUUCAGGUGCGCGUGAAAGAGAGAAGUGAACCAGAGAAACACGCGUUGUGGUAUAUUACCUGGUA, the self-cleavage is 0.462.

With GUCCUCUUUCAAGUGCGCGUGAAAGAGAGAAGCGAACCAGAGAAACACACGUUGUGGUAUAUUACCUGGUA, the self-cleavage stood at 0.166.

Regarding GUCCUCUUUCAGGUGCGCGUGUAAGAGAGAAGUGAACCAGAGAAACACACGUUGUGGUAUAUUACCUGGUA, the self-cleavage was 0.686.

Take GUCCUCUUUCAGGUGCGCGUGGAAGAGAGAAGUGAACCAGAGAAACACACGUUGUGGUAUAUUACCUGGUA: the self-cleavage stood at 0.739.

Regarding GUCCUCUUUCAGGUGCGCGUGAAAGAGAGAAGUGAACCAGAGAAACACAUGUUGUGGUAUAUUACCUGGUA, the self-cleavage was determined as 0.291.

On to GUCCUCUUUCAGGUGCGCGUGAAAGAGAGAAGUGAACCAGAGAAACACACGCUGUGGUAUAUUACCUGGUA, for which the self-cleavage turned out to be 0.899.

As to GUCCUCUUUCAGGUGCACGUGAAAGAGAGAAGUGAACCAGAGAAACACACGUUGUGGUAUAUUACCUGGUA, the self-cleavage is 0.913.

For GUCCUCUUUCAGGUGCGCGUGAAAGAGAGAAGUGAACCAGAGAAACGCACGUUGUGGUAUAUUACCUGGUA, the self-cleavage stood at 0.076.

Take GUCCUCUUUCAGGUGCGCGUGAAAGAGAGAAGUGAACCAGAGAAACUCACGUUGUGGUAUAUUACCUGGUA: the self-cleavage was found to be 0.183.

Turning to GUCCUCUUUCAGGUGCGCGUGAAAGAGAGAAGUGAACCAGAGAAACACACGUUGUGUUAUAUUACCUGGUA, the self-cleavage amounted to 0.322.

For GUCCUCUUUCAGGUGCGCGUGAAAGAGAGAAGUGAACCAGAGAAACACACGUUGUGGUAUUUUACCUGGUA, the self-cleavage turned out to be 0.217.

With GUCCUCUUUCAGGUGCGCGUGAAAGAGAGAAGUGAACCAGAGAAACACACGUUGUGGUAUGUUACCUGGUA, the self-cleavage stood at 0.154.

As for GUCCUCUUUCAGGUGCGCGUGAAAGAGAGAAGUGAACCCGAGAAACACACGUUGUGGUAUAUUACCUGGUA, the self-cleavage was 0.436.

For the origin of these results see the RNAGym collection of RNA variant scans (doi:10.7554/elife.80360).
